Values quoted from earlier work in paper PMC5319408.

Biological target: cytochrome P450cam (CYP101, oxidized) (Pseudomonas putida) (UniProt P00183)
Chain of UniProt P00183 (P00183 2-415): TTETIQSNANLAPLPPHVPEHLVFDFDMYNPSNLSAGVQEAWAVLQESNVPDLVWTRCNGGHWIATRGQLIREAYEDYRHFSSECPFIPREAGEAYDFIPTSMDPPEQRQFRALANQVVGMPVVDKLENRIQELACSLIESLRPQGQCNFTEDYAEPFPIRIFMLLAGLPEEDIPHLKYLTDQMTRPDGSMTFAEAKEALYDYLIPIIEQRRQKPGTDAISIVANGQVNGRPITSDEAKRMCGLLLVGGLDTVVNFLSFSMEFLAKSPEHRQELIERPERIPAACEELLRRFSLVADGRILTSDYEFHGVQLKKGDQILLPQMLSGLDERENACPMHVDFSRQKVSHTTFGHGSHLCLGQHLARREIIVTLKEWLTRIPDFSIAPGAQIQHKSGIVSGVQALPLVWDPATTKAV

Substance: putidaredoxin (oxidized) (from UniProt P00259)
- Kd: 17 µM
